Read-outs that look alike come from different tables or passages of the source. *1 amine or outer side, *2 acyl side, *3 side chain or, on linkers, in order; H or OH if unused. Where a SMILES comes first, the peptide text is derived from it. [ ]: non-standard residue; d: D form. The star is where a group is joined. MaleimidoPEG4propanoyl = O=C1C=CC(=O)N1CCOCCOCCOCCOCCC(=O)*; X2 = CO[C@@H]([C@H]1CCCN1[*:1])[C@@H](C)C(=O)[*:2]; Propanoyl(3-maleimido) = O=C1C=CC(=O)N1CCC(=O)*; Dil = CC[C@H](C)[C@H](NC)[C@@H](CC(=O)O)OC; X1 = O=C(CN1CCOCCN([*:1])CCOCC1)[*:2]; PABC = O=C(OCc1ccc(N[*:1])cc1)[*:2]; X3 = C[C@@H](N*)[C@@H](O)c1ccccc1; NMeV = CN[C@H](C(=O)O)C(C)C
What was measured:
[1] = format: physicochemical; conditions: ADC with Her2 antibody, RP-HPLC-MS
Description: (§1) A drug-antibody conjugating ratio (also known as drug-antibody ratio, abbreviated as DAR) of the antibody-drug conjugate was tested using reversed-phase high-performance liquid chromatography-mass chromatography (RP-HPLC-MS). The ADC sample was diluted with 50 mmol/L Tris buffer (pH 8.0) to 1 mg/ml. A fresh dithiothreitol (DTT) stock solution was added to achieve a final DTT concentration of 50 mmol/L. Incubation was performed at 37° C. for 30 minutes. A PLRP-S chromatographic column (1000 Å pores, 2.1×50 mm, 5) μm) was used, and the column temperature was 70° C. The flow rate was 0.25 mL/min. […] of sample was injected; the mobile phase A was an aqueous solution of 0.1% formic acid (V/V) and 0.025% trifluoroacetic acid (V/V), and the mobile phase B was an acetonitrile solution of 0.1% formic acid (V/V) and 0.025% trifluoroacetic acid (V/V); the running time was 0-3 minutes, where 27% of mobile phase B ran for 3 minutes, and the mobile phase B ran from 27% to 49% within 3-25 minutes, from 49% to 95% within 25-26 minutes, at 95% within […], from 95% to 27% within 30-31.5 minutes, and at 27% for 31.5-45 minutes. […] Mass spectrometry drying gas was at a temperature of 350° C. and a flow rate of 7.0 L/min, the pressure of an atomizer was 40 psi, capillary voltage was positive 3000V and negative 3000V, and the mass range was 500-1600 m/z. The molecular weight of each mass spectrometry peak (ranging from 20000 to 70000) was calculated by deconvolution and compared with light and heavy chain molecular weights of un-conjugated antibodies to calculate a drug load at each peak, so as to determine the load of a corresponding ultraviolet peak. Area percentages of heavy and light chain ultraviolet peaks were calculated through integration, and a weighted average DAR of the antibody-drug conjugate was calculated by combining the area percentages with the drug load distribution of each peak.

[2] = Naked antibody content of antibody-drug conjugates by hydrophobic interaction chromatography (HIC); format: physicochemical; conditions: ADC with Her2 antibody
Description: The content of naked antibodies in the antibody-drug conjugate was tested using hydrophobic interaction chromatography (HIC). A Biocore HIC-Butyl chromatographic column (4.6×150 mm, 5 μm) was used. The mobile phase A was a 100 mM phosphate aqueous solution containing 2 M ammonium sulfate (pH 7.0), and the mobile phase B was a 100 mM phosphate aqueous solution (pH 7.0): isopropanol=80:20 (V/V). Samples of 50 μg and 10 μl were injected. The mobile phase A at the flow rate of 1 mL/min ran at 100% for 3 minutes. Within 3-25 minutes, the mobile phase B ran from […] to 100%, while the mobile phase B decreased to 0% at 25.1 and ran to 30 minutes. […] The naked antibody content of the antibody-drug conjugate was calculated using an area normalization method based on the retention time of a naked antibody peak located by the antibody of the antibody-drug conjugate.

[3] = Polymer (high molecular component) content of antibody-drug conjugates by SE-HPLC; format: physicochemical; conditions: ADC with Her2 antibody
Description: (§2) Polymers (high molecular components) of the antibody-drug conjugates were tested using molecular exclusion high-performance liquid chromatography (SE-HPLC). A Biocore SEC chromatographic column (7.8×300 mm, […]) was used, and the mobile phase was 50 mM phosphate containing 300 mM sodium chloride (pH 6.8), with a flow rate of 0.5 mL/min. Samples of […] and 10 μl were injected. […] The polymer content of an antibody-drug conjugate was calculated using an area normalization method.

[4] = Stability (placement) test of ADCs at 40° C. in dark for 14 days, DAR and polymer content; format: physicochemical
Description: as §2, §1
Stability testing method: The stability of the obtained ADCs was tested for 14 days. The ADCs were placed at 40° C. in dark. Sampling points were days 0, 7, and 14. The polymer content and DAR value of samples at different sampling points were tested according to the method in Experimental Example 1.

SMILES	DAR [1]	Naked antibody content (%) [2]	Polymer content (%) [3]	DAR ([4]; Day 0, 40° C. in dark)	Polymer content (%) ([4]; Day 0, 40° C. in dark)	DAR ([4]; Day 7, 40° C. in dark)	Polymer content (%) ([4]; Day 7, 40° C. in dark)	DAR ([4]; Day 14, 40° C. in dark)	Polymer content (%) ([4]; Day 14, 40° C. in dark)
CCc1c2c(nc3ccc(O)cc13)-c1cc3c(c(=O)n1C2)COC(=O)[C@@]3(CC)OC(=O)N(C)CCN(C)C(=O)COCNC(=O)[C@H](CC(N)=O)NC(=O)[C@H](C)NC(=O)[C@H](C)NC(=O)CN1CCOCCN(C(=O)CCN2C(=O)C=CC2=O)CCOCC1 [Example 83]	3.96	2.23%	0.56%	3.96	0.56%	3.98	0.59%	3.96	0.58%
CC[C@H](C)[C@@H]([C@@H](CC(=O)N1CCC[C@@H]1[C@H](OC)[C@@H](C)C(=O)N[C@H](C)[C@@H](O)c1ccccc1)OC)N(C)C(=O)[C@@H](NC(=O)[C@H](C(C)C)N(C)C(=O)OCc1ccc(NC(=O)CNC(=O)[C@H](Cc2ccccc2)NC(=O)CNC(=O)CN2CCOCCN(C(=O)CCN3C(=O)C=CC3=O)CCOCC2)cc1)C(C)C [Example 86] ({Propanoyl(3-maleimido)}-[X1]GFG[PABC][NMeV]V[Dil][X2]-X3)	4.20	3.45%	0.97%	4.20	0.97%	4.23	0.99%	4.16	1.11%
C=C1C[C@@H]2CC[C@@]34C[C@H]5OC6C(O[C@H]7CC[C@H](CC(=O)C[C@@H]8[C@@H](OC)[C@@H](C[C@H](O)CNC(=O)CNC(=O)[C@H](Cc9ccccc9)NC(=O)CNC(=O)CNC(=O)CN9CCOCCN(C(=O)CCN%10C(=O)C=CC%10=O)CCOCC9)O[C@H]8C[C@H]8O[C@@H](CC[C@@H]1O2)C[C@@H](C)C8=C)O[C@@H]7[C@@H]6O3)[C@H]5O4 [Example 21]	4.08	2.56%	0.87%	4.08	0.87%	4.06	0.90%	4.10	0.88%
C=C1C[C@@H]2CC[C@@]34C[C@H]5OC6C(O[C@H]7CC[C@H](CC(=O)C[C@@H]8[C@@H](OC)[C@@H](C[C@H](O)CNC(=O)CNC(=O)[C@H](Cc9ccccc9)NC(=O)CNC(=O)CNC(=O)CN9CCOCCOCCN(C(=O)CCCCCN%10C(=O)C=CC%10=O)CCOCCOCC9)O[C@H]8C[C@H]8O[C@@H](CC[C@@H]1O2)C[C@@H](C)C8=C)O[C@@H]7[C@@H]6O3)[C@H]5O4 [Example 39]	4.30	0.00%	0.90%	4.30	0.90%	4.32	0.92%	4.30	0.98%
CC[C@H](C)[C@@H]([C@@H](CC(=O)N1CCC[C@@H]1[C@H](OC)[C@@H](C)C(=O)N[C@H](C)[C@@H](O)c1ccccc1)OC)N(C)C(=O)[C@@H](NC(=O)[C@H](C(C)C)N(C)C(=O)OCc1ccc(NC(=O)CNC(=O)[C@H](Cc2ccccc2)NC(=O)CNC(=O)CNC(=O)CN2CCOCCN(C(=O)CCOCCOCCOCCOCCN3C(=O)C=CC3=O)CCOCC2)cc1)C(C)C [Example 85] (MaleimidoPEG4propanoyl-[X1]GGFG[PABC][NMeV]V[Dil][X2]-X3)	4.04	1.98%	1.43%	4.04	1.43%	4.08	1.48%	4.00	1.45%
C=C1C[C@@H]2CC[C@@]34C[C@H]5OC6C(O[C@H]7CC[C@H](CC(=O)C[C@@H]8[C@@H](OC)[C@@H](C[C@H](O)CNC(=O)CNC(=O)[C@H](Cc9ccccc9)NC(=O)CNC(=O)CN9CCOCCOCCN(C(=O)CCCC%10C(=O)C=CC%10=O)CCOCCOCC9)O[C@H]8C[C@H]8O[C@@H](CC[C@@H]1O2)C[C@@H](C)C8=C)O[C@@H]7[C@@H]6O3)[C@H]5O4 [Example 42]	4.12	1.06%	1.25%	4.12	1.25%	4.11	1.28%	4.08	1.26%
CC[C@@]1(O)C(=O)OCc2c1cc1n(c2=O)Cc2c-1nc1cc(F)c(C)c3c1c2[C@@H](NC(=O)COCNC(=O)CNC(=O)CNC(=O)CNC(=O)CN1CCOCCN(C(=O)CCN2C(=O)C=CC2=O)CCOCC1)CC3 [Example 28]	3.84	2.76%	0.56%	3.84	0.56%	3.89	0.57%	3.82	0.65%
C=C1C[C@@H]2CC[C@@]34C[C@H]5OC6C(O[C@H]7CC[C@H](CC(=O)C[C@@H]8[C@@H](OC)[C@@H](C[C@H](O)CNC(=O)CNC(=O)[C@H](Cc9ccccc9)NC(=O)CNC(=O)CNC(=O)CN9CCOCCOCCN(C(=O)CCCC%10C(=O)C=CC%10=O)CCOCCOCC9)O[C@H]8C[C@H]8O[C@@H](CC[C@@H]1O2)C[C@@H](C)C8=C)O[C@@H]7[C@@H]6O3)[C@H]5O4 [Example 41]	3.84	5.05%	1.52%	3.84	1.52%	3.81	1.53%	3.81	1.59%
CCc1c2c(nc3ccc(O)cc13)-c1cc3c(c(=O)n1C2)CCC(=O)[C@@]3(CC)OC(=O)N(C)CCN(C)C(=O)COCNC(=O)CNC(=O)[C@H](Cc1ccccc1)NC(=O)CNC(=O)CNC(=O)CN1CCOCCN(C(=O)CCN2C(=O)C=CC2=O)CCOCC1 [Example 23]	4.12	0.00%	0.41%	4.12	0.41%	4.15	0.45%	4.16	0.56%
C=C1C[C@@H]2CC[C@@]34C[C@H]5OC6C(C[C@H]7CC[C@H](CC(=O)C[C@@H]8[C@@H](OC)[C@@H](CC(O)CNC(=O)CNC(=O)[C@H](Cc9ccccc9)NC(=O)CNC(=O)CNC(=O)CN9CCN%10CCN(CCN(CC(=O)NCC(=O)NCC(=O)N[C@@H](Cc%11ccccc%11)C(=O)NCC(=O)NCOCC(=O)N[C@H]%11CCc%12c(C)c(F)cc%13nc%14c(c%11c%12%13)Cn%11c-%14cc%12c(c%11=O)COC(=O)[C@]%12(O)CC)CC9)CCN(C(=O)CCCCCN9C(=O)C=CC9=O)CC%10)O[C@H]8C[C@H]8O[C@@H](CC[C@@H]1O2)C[C@@H](C)C8=C)O[C@@H]7[C@@H]6O3)[C@H]5O4 (stereo partly drawn) [Example 59]	3.83	2.57%	1.18%	3.83	1.18%	3.83	1.22%	3.78	1.27%

From patent US20240293570A1 (priority 2021, published 2024)
